The values below come from patent US8470523B2, “Method for detecting intracellular interaction between biomolecules” (CIS BIO International, priority 2005, dated 2013).

The test system of the series is CHO-M1 cells. Nature of the series: Entry of a fluorophore into cells in culture, fluorescence reader. The settings on record: 2.5 μM or 5 μM in KREBS buffer, 1 hour, FIG. 13.

Procedure: CHO cells are cultivated at 37° C., under a controlled atmosphere containing 5% of CO2, in F-12 HAM medium (Invitrogen)+10% of fetal calf serum (FCS) previously inactivated for 20 min at 60° C.
On the day before the experiment, CHO-M1 cells are inoculated into a 96-well plate at a density of 10,000 cells per well.
On the day of the experiment, the culture medium is aspirated and replaced with the test compounds at a concentration of 2.5 μM or 5 μM in KREBS buffer (Sigma). After 1 hour of incubation, the wells are washed with a KREBS buffer+0.05% Tween 20. The cells are then lyzed in a PBS buffer+0.1% Triton X100. The fluorescence is measured on an Analyst AD reader (LJL, Molecular Devices) with the filters and the dichroic appropriate for the spectral specificities of the compound to be detected.

As for `N=C(N)NCCCC(NC(=O)CCCCCN)C(=O)NCCCCCC(=O)NC(CCCNC(=N)N)C(=O)NCCCCCC(=O)NC(CCCNC(=N)N)C(=O)NCCCCCC(=O)NC(CCCNC(=N)N)C(=O)NCCCCCC(=O)NC(CCCNC(=N)N)C(=O)NCCCCCC(=O)NC(CCCNC(=N)N)C(=O)NCCCCCC(=O)NC(CCCNC(=N)N)C(=O)NC(CSCC(=O)Nc1ccc2c(c1)C1(OC2=O)c2ccc(O)cc2Oc2cc(O)ccc21)C(N)=O` (stereo not shown) [R7fluorescein], the “entry into the cell (fluorescence intensity of lysed cells)” value is recorded as “enter the cell”.
